# T1: Wild type RepD from Staphylococcus aureus, as oriD DNA-RepD adduct
# T1 chain: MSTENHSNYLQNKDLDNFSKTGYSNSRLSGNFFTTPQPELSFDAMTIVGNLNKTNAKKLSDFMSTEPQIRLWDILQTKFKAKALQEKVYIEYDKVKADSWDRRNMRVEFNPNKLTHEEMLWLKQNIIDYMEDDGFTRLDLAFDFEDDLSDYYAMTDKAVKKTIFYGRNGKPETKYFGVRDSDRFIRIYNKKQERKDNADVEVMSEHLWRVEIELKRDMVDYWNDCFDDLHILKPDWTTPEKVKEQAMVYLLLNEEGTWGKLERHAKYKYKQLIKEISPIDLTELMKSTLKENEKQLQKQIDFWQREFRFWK
# B1: PcrA-DM1, a double cysteine mutant of PcrA, stochastically labeled with a mixture of donor and acceptor fluorophores (protein)
# chain: MNFLSEQLLAHLNKEQQEAVRTTEGPLLIMAGAGSGKTRVLTHRIAYLMAEKHVAPWNILAITFTNKAAREMRERVQSLLGGAAEDVWISTFHSMAVRILRRDIDRIGINRNFSILDPTDQLSVMKTILKEKNIDPKKFEPRTILGTISAAKNELLPPEQFAKRASTYYEKVVSDVYQEYQQRLLRCHSLDFDDLIMTTIQLFDRVPDVLHYYQYKFQYIHIDEYQDTNRAQYTLVKKLAERFQNIAAVGDADQSIYRWRGADIQNILSFERDYPNAKVILLEQNYRSTKRILQAANEVIEHNVNRKPKRIWTENPEGKPILYYEAMNEADEAQFVAGRIREAVERGERRYRDFAVLYRTNAQSRVMEEMLLKANIPYQIVGGLKFYDRKEIKDILAYLRVIANPDDDCSLLRIINVPKRGIGASTIDKLVRYAADHELSLFEALGELEMIGLGAKAAGALAAFRSQLEQWTQLQEYVSVTELVEEVLDKSGYREMLKAERTIEAQSRLENLDEFLSVTKHFENVSDDKSLIAFLTDLALISDLDELDGTEQAAEGDAVMLMTLHAAKGLEFPVVFLIGMEEGIFPHNRSLEDDDEMEEERRLAYVGITRAEEELVLTSAQMRTLFGNIQMDPPSRFLNEIPAHLLETASRRQAGASRPAVSRPQASGAVGSWKVGDRANHRKWGIGTVVSVRGGGDDQELDIAFPSPIGIKRLLAKFAPIEKV
# Biological target: T1, Wild type RepD from Staphylococcus …
protein,measurement,value
B1,"EFRET distribution of dual labeled PcrA-DM1 (smFRET, intramolecular conformation of PcrA)",the presence of RepD indeed biases PcrA toward the closed high EFRET conformation

# — patent publication US20250075192
